Reference: the supplement of paper PMC12764529
± gives the half width of the 95% confidence interval.

Assay: folding stability dG unfold from chymotrypsin proteolysis; higher = more stable
In short: (§1)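 Sequencing followed digestion of designed mini-proteins with trypsin and chymotrypsin, each at 11 concentrations in threefold dilutions together with a no-protease condition. The mini-proteins were under 80 residues, had no cysteine, sat in a PA-tagged cDNA display construct, and were kept only if AlphaFold2 dimer inter-PAE was above 15. From the counts, Bayesian fitting gave K50, and unfolding free energy was derived against a sequence-predicted unfolded-state K50 and a shared folded-state K50, per protease or combined.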

Going from “SAGGSAGGWREIKIYVPPGMPLEEIKDLIKEFFPGYKVEIDEIEREDNYVKATIRIQPLPPGDFSAGGSAGG [r6_623_TrROS]” to “SAMVVPVKVELEIRVPGTPEEALEIAEELAKAFESLGNVEVDLELIEKSEDGSYIIKLTVTNYLPPELFSAG [r14_413_TrMRF]”, the “folding stability dG unfold” value falls from 2.81 ± 0.04 kcal/mol to 1.99 ± 0.11 kcal/mol.

First: SAGGPFRVRISDEVIKELKKQGLKPGKKSVKITMQYPNGWVFRGTIKIPPANPKIPLKAEPVERLDDSAGGS [r16_497_TrROS]
Second: SAGSSVTAPFSLPSDLVVDSVTYDPDAKTVTVTVTDPRGGRKAVGTFPVWDPNGNPVLSTADSYTFDNPSAG [r5_434_TrMRF]
The “folding stability dG unfold” value of the first is higher: 0.386 ± 0.17 kcal/mol for the first, -0.0129 ± 0.058 kcal/mol for the second.

Compared with “SWWYIVTIKIWKPGNGEPKGPIMLFVRSPEEAEEIAEEPAPEHGYDVEVNVKRIPPDDMDDPEQMKEMMNSA [r9_864_TrROS]”, “SAGGSAGGSAGNLKPVSGGGVLKVEVKDPNTDKKETYLVPPNKPDVVLELAKDGYEVEVSSAGGSAGGSAGG [r11_1006_TrMRF]” is lower in “folding stability dG unfold” value: 2.56 ± 0.13 kcal/mol for the first, 0.227 ± 0.14 kcal/mol for the second.

First: SAGTIAKEIAEKLGLPGLKVKDVKFEPDPDGPIKEIEITVEFPNGRYWKIDIRYDPGNIVIDIEPVPPSAGG [r19_392_TrROS]
Second: SAGGTITIELDGVTIEVRVEEKDGTLTLTAKVYNKDTGEVFEIEITITRKEDGSVTITIKITKIEPLPSAGG [r13_1004_TrROS_Hall]
The “folding stability dG unfold” value of the first is lower: 2.29 ± 0.029 kcal/mol for the first, 3.96 ± 0.28 kcal/mol for the second.

First: SAGGKKKVTIEIRKNPEEPGKYIIRVKVDGKEIEIEVSEEDLEEILAALKKLLPPGAKIEKIEIRELPSAGG [r13_519_TrROS_Hall]
Second: SAGGNPSASPVVTETELPDGSRVTTTTYPSGTTTRTVTDLVTGKKTLVTTTTTPGTGATTTTTTPVPPSAGG [r13_822_JUSTAS]
The “folding stability dG unfold” value of the first is higher: 3.85 ± 0.081 kcal/mol for the first, 1.51 ± 0.022 kcal/mol for the second.

First: SAGGSAGGVLRMVRRALKNGKNRPIVIYVPEPEQRNFIKWLKDEWPGIKIKVVPPDQMPPNQIISAGGSAGG [r6_87_TrROS]
Second: SAGGSAGGSAGNPNTPVIVKITLPGGKEITLEGTVSEAEEIVKKLEEEGHPFVEVEVYNRSAGGSAGGSAGG [r11_946_JUSTAS]
The “folding stability dG unfold” value of the first is higher: 1.31 ± 0.068 kcal/mol for the first, -0.849 ± 0.3 kcal/mol for the second.

First: SAGGSAGGSAGSMTPAEEKAREVEERLRREHPEFERVFVRVKEFRPETGEVTIEVEVEPRSAGGSAGGSAGG [r11_617_JUSTAS]
Second: SAWKIEIKEVKRNPDGWYEITITIPFPGDPNMPVDELADEILQEFGIKDVTVEPNPDNGWIEITIRIPRSAG [r14_228_TrROS]
The “folding stability dG unfold” value of the first is lower: -0.641 ± 0.27 kcal/mol for the first, 2.53 ± 0.057 kcal/mol for the second.

Compared with “SAGGARVFEVTFPDGSRARIVLLPDGTLLLETDSLDNLVALLEALGVELVSIRRHPDGRVLAVARLPPSAGG [r19_257_TrMRF]”, “SAGGPKVIVTDPNGVKHEFENLSIPELLSSLPKNGTPILKIEIPLFNPELGGEEPLELEFIFPPELFSAGGS [r16_806_TrMRF]” is lower in “folding stability dG unfold” value: 4.32 ± 0.14 kcal/mol for the first, -0.417 ± 0.19 kcal/mol for the second.

Assay: folding stability dG unfold (combined trypsin and chymotrypsin); higher = more stable
In short: as §1

Compared with “SKIKIKAKDKKTNIPIDEIDIYPLEDGSYGIKIIFTFPKEKKEITIPIPKNKKIEEFIKALGLEEIEIDASA [r9_492_TrMRF]”, “SKIRIEWPDETQEIKIPKDASVAIDPGNGHIAIHGPDGEALGFPLGPNWKIEPDDDEIEITIPPPKPEDPSA [r9_653_TrROS]” is lower in “folding stability dG unfold” value: 1.79 ± 0.23 kcal/mol for the first, 0.158 ± 0.2 kcal/mol for the second.

Going from “SAGSTTRVVELPGNKRVEVEVSTVGDSLTFTITLRDEEGNPVKTLPVAVPDPSLPVEEAIAAAVAAFLASAG [r5_630_JUSTAS]” to “SAGMTIEVEYTFPPGNPEEAEKRAEEIAEELKPKPLPNITIEISREPVVDPNSDATTTRYTFTITAEPKSAG [r5_49_JUSTAS]”, the “folding stability dG unfold” value falls from 3.68 ± 0.042 kcal/mol to 1.02 ± 0.19 kcal/mol.

Compared with “SAGAPLEVPGPLVTVTEEEVPGKPLVFIPTPDGLIVVDLVTGKAERYPLYSEEPIVLDVPPGVVIELPSAGG [r19_138_JUSTAS]”, “SAGGMEFEFTREDGRKTRVELEVNPETGEVTEKIYVGGKLLYTFKDGELKYIPDEVAAARIEARLPPESAGG [r13_958_TrMRF]” is higher in “folding stability dG unfold” value: 0.819 ± 0.077 kcal/mol for the first, 1.45 ± 0.11 kcal/mol for the second.

Compared with “PEKVILVEVPAGEELTEEELKELAEALGLEVEIEKVKVTVTVTVEVTLPDGKKVKVETTETRTVVLVTVKDS [r1_238_TrROS_Hall]”, “SAGGSAGGEYEISIPNYELTEEKFDPNPGLLTVTYKDPEGKLVTITYKVKPDSIEKVKTETFEPSAGGSAGG [r6_719_JUSTAS]” is lower in “folding stability dG unfold” value: 3.16 ± 0.14 kcal/mol for the first, 0.963 ± 0.064 kcal/mol for the second.

First: SAGMIKVEVVEKDEKTKEWKVVETKTIPVKPGEKPTVEELAKKLKEKGYEVRIEKTKDGTLKIYVIKKKSAG [r5_269_TrROS_Hall]
Second: SAGGSAGGSAGPNWKKYTFTIFFPGYPFRVEIERPKDGPNAPLAIKIEDPNGKPMETFPISAGGSAGGSAGG [r11_223_TrROS]
The “folding stability dG unfold” value of the first is higher: 3.78 ± 0.16 kcal/mol for the first, 2.67 ± 0.12 kcal/mol for the second.

First: MNLSDPVSVAKLKKALEEIKKAIEELKKKGKKIEILAIELNDDSIKITPVTKSEEYIKKKKEEGIEIILLLS [r1_134_JUSTAS]
Second: SAGGSAGGSAGGMEIEKNENGELIIKFKSKEEAEKAIEELKKKGYKVELNEDGYLIIKPSAGGSAGGSAGGS [r10_1027_TrROS_Hall]
The “folding stability dG unfold” value of the first is lower: 1.38 ± 0.2 kcal/mol for the first, 3.96 ± 0.13 kcal/mol for the second.

Compared with “SAGGSAGGSAGKEYIVRITLPNGKVYEFPGKLEDVVKALPPEYKDAVIEVFDPRTGKRVSSAGGSAGGSAGG [r11_353_TrMRF]”, “SAGGATFAPGQTITVTVTVTLADGSTVTVTATVRIEVRAAPAPPVTVTNADGSTRTFTSAEEARAAASAGGS [r16_580_TrROS_Hall]” is lower in “folding stability dG unfold” value: 3.84 ± 0.089 kcal/mol for the first, 1.01 ± 0.098 kcal/mol for the second.

First: SAGGSAGGSFKAPPGEKYVLKLRSPENGQEFMVEFTPDNIKISNPNDEKMPFPPDDITDVKDVSAGGSAGGS [r20_35_TrROS]
Second: SAGGSAGGWREIKIYVPPGMPLEEIKDLIKEFFPGYKVEIDEIEREDNYVKATIRIQPLPPGDFSAGGSAGG [r6_623_TrROS]
The “folding stability dG unfold” value of the first is lower: -0.109 ± 0.17 kcal/mol for the first, 2.96 ± 0.071 kcal/mol for the second.

Going from “SAMVVPVKVELEIRVPGTPEEALEIAEELAKAFESLGNVEVDLELIEKSEDGSYIIKLTVTNYLPPELFSAG [r14_413_TrMRF]” to “SAGGPFRVRISDEVIKELKKQGLKPGKKSVKITMQYPNGWVFRGTIKIPPANPKIPLKAEPVERLDDSAGGS [r16_497_TrROS]”, the “folding stability dG unfold” value falls from 1.53 ± 0.21 kcal/mol to 0.482 ± 0.11 kcal/mol.

First: SAGSSVTAPFSLPSDLVVDSVTYDPDAKTVTVTVTDPRGGRKAVGTFPVWDPNGNPVLSTADSYTFDNPSAG [r5_434_TrMRF]
Second: SWWYIVTIKIWKPGNGEPKGPIMLFVRSPEEAEEIAEEPAPEHGYDVEVNVKRIPPDDMDDPEQMKEMMNSA [r9_864_TrROS]
The “folding stability dG unfold” value of the first is lower: -0.128 ± 0.053 kcal/mol for the first, 2.07 ± 0.37 kcal/mol for the second.

First: SAGGSAGGSAGNLKPVSGGGVLKVEVKDPNTDKKETYLVPPNKPDVVLELAKDGYEVEVSSAGGSAGGSAGG [r11_1006_TrMRF]
Second: SAGTIAKEIAEKLGLPGLKVKDVKFEPDPDGPIKEIEITVEFPNGRYWKIDIRYDPGNIVIDIEPVPPSAGG [r19_392_TrROS]
The “folding stability dG unfold” value of the first is lower: 0.639 ± 0.14 kcal/mol for the first, 2.17 ± 0.1 kcal/mol for the second.

“SAGGTITIELDGVTIEVRVEEKDGTLTLTAKVYNKDTGEVFEIEITITRKEDGSVTITIKITKIEPLPSAGG [r13_1004_TrROS_Hall]” and “SAGGKKKVTIEIRKNPEEPGKYIIRVKVDGKEIEIEVSEEDLEEILAALKKLLPPGAKIEKIEIRELPSAGG [r13_519_TrROS_Hall]” are within error of each other in “folding stability dG unfold” value: 3.87 ± 0.53 kcal/mol for the first, 3.45 ± 0.12 kcal/mol for the second.

Compared with “SAGGNPSASPVVTETELPDGSRVTTTTYPSGTTTRTVTDLVTGKKTLVTTTTTPGTGATTTTTTPVPPSAGG [r13_822_JUSTAS]”, “SAGGSAGGVLRMVRRALKNGKNRPIVIYVPEPEQRNFIKWLKDEWPGIKIKVVPPDQMPPNQIISAGGSAGG [r6_87_TrROS]” is higher in “folding stability dG unfold” value: 1.08 ± 0.03 kcal/mol for the first, 1.46 ± 0.094 kcal/mol for the second.

“SAGGSAGGSAGNPNTPVIVKITLPGGKEITLEGTVSEAEEIVKKLEEEGHPFVEVEVYNRSAGGSAGGSAGG [r11_946_JUSTAS]” and “SAGGSAGGSAGSMTPAEEKAREVEERLRREHPEFERVFVRVKEFRPETGEVTIEVEVEPRSAGGSAGGSAGG [r11_617_JUSTAS]” are within error of each other in “folding stability dG unfold” value: 0.0762 ± 0.14 kcal/mol for the first, -0.0464 ± 0.12 kcal/mol for the second.

First: SAWKIEIKEVKRNPDGWYEITITIPFPGDPNMPVDELADEILQEFGIKDVTVEPNPDNGWIEITIRIPRSAG [r14_228_TrROS]
Second: SAGGARVFEVTFPDGSRARIVLLPDGTLLLETDSLDNLVALLEALGVELVSIRRHPDGRVLAVARLPPSAGG [r19_257_TrMRF]
The “folding stability dG unfold” value of the first is lower: 2.48 ± 0.19 kcal/mol for the first, 4.43 ± 0.082 kcal/mol for the second.

For “SAGGPKVIVTDPNGVKHEFENLSIPELLSSLPKNGTPILKIEIPLFNPELGGEEPLELEFIFPPELFSAGGS [r16_806_TrMRF]”, the “folding stability dG unfold” value was 0.107 ± 0.083 kcal/mol.
